Data as given in US20110123511.

Experiments:
[1] = tested on: peptide containing H3 residues 1-20
[2] = tested on: H3 peptide previously di-methylated at K27
[3] = tested on: core histone H2B
[4] = tested on: H3 peptide phosphorylated at S28
[5] = tested on: H3 peptide containing residues 15-30
[6] = tested on: GST-fusion histone H3 peptide (residues 1-57), K27R mutant [GST: P08515]
[7] = tested on: full-length free histone H3 (individual core histone)
[8] = tested on: core histone H4
[9] = tested on: core histone H2A
[10] = tested on: GST-fusion histone H3 peptide (residues 1-57), wild-type

Row | Substance | methylation activity with H3 peptides (14C-methyl-SAM) [1] | methylation activity with H3 peptides (14C-methyl-SAM) [2] | histone methyltransferase activity [3] | methylation activity with H3 peptides (14C-methyl-SAM) [4] | methylation activity with H3 peptides (14C-methyl-SAM) [5] | HMT activity on GST-histone H3 (residues 1-57) [6] | histone methyltransferase activity [7] | histone methyltransferase activity [8] | histone methyltransferase activity [9] | HMT activity on GST-histone H3 (residues 1-57) [10]
1 | SET protein from chlorella virus MA-1D | these viral SET proteins only methylated a H3 peptide containing residues 15-30 but not a peptide containing H3 residues 1-20 | They showed little methyltransferase activity if the H3 peptide was previously di-methylated at K27 or phosphorylated at S28 | the SET proteins from these 3 viruses selectively methylate H3 (data not shown) | They showed little methyltransferase activity if the H3 peptide was previously di-methylated at K27 or phosphorylated at S28 | these viral SET proteins only methylated a H3 peptide containing residues 15-30 but not a peptide containing H3 residues 1-20 | these viral SET proteins had robust methylation activity on wild-type H3 but little or diminished activity on the K27R mutant | the SET proteins from these 3 viruses selectively methylate H3 (data not shown) | the SET proteins from these 3 viruses selectively methylate H3 (data not shown) | the SET proteins from these 3 viruses selectively methylate H3 (data not shown) | these viral SET proteins had robust methylation activity on wild-type H3 but little or diminished activity on the K27R mutant
2 | SET protein from chlorella virus NY-2A | these viral SET proteins only methylated a H3 peptide containing residues 15-30 but not a peptide containing H3 residues 1-20 | They showed little methyltransferase activity if the H3 peptide was previously di-methylated at K27 or phosphorylated at S28 | the SET proteins from these 3 viruses selectively methylate H3 (data not shown) | They showed little methyltransferase activity if the H3 peptide was previously di-methylated at K27 or phosphorylated at S28 | these viral SET proteins only methylated a H3 peptide containing residues 15-30 but not a peptide containing H3 residues 1-20 | these viral SET proteins had robust methylation activity on wild-type H3 but little or diminished activity on the K27R mutant | the SET proteins from these 3 viruses selectively methylate H3 (data not shown) | the SET proteins from these 3 viruses selectively methylate H3 (data not shown) | the SET proteins from these 3 viruses selectively methylate H3 (data not shown) | these viral SET proteins had robust methylation activity on wild-type H3 but little or diminished activity on the K27R mutant
3 | SET protein from chlorella virus NY-2B | these viral SET proteins only methylated a H3 peptide containing residues 15-30 but not a peptide containing H3 residues 1-20 | They showed little methyltransferase activity if the H3 peptide was previously di-methylated at K27 or phosphorylated at S28 | the SET proteins from these 3 viruses selectively methylate H3 (data not shown) | They showed little methyltransferase activity if the H3 peptide was previously di-methylated at K27 or phosphorylated at S28 | these viral SET proteins only methylated a H3 peptide containing residues 15-30 but not a peptide containing H3 residues 1-20 | these viral SET proteins had robust methylation activity on wild-type H3 but little or diminished activity on the K27R mutant | the SET proteins from these 3 viruses selectively methylate H3 (data not shown) | the SET proteins from these 3 viruses selectively methylate H3 (data not shown) | the SET proteins from these 3 viruses selectively methylate H3 (data not shown) | these viral SET proteins had robust methylation activity on wild-type H3 but little or diminished activity on the K27R mutant
